Our source for the Kd values is US20190330347A1 (published 2019).

The target of this test is biotin-labeled PD-1 antigen (UniProt Q15116 25-167, biotin-labeled (site not stated)). Briefly: BLI (Fortebio).

As a reminder, the Kd is the constant that tells how readily two partners part at equilibrium. A higher Kd goes with weaker binding.

Sequence of biotin-labeled PD-1 antigen (Q15116 25-167): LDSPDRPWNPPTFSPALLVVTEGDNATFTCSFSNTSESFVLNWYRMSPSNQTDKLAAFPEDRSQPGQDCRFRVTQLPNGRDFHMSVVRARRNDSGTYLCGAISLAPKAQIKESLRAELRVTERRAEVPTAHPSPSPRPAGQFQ

B1: humanized H8L2 antibody (IgG-like antibody H8L2 against PD-1) (antibody)
heavy: EVQLVQSGGGLVQPGGSLKLSCAASGFTFSSYGMSWVRQAPGKGLDWVATISGGGRDTYYPDSVKGRFTISRDNSKNNLYLQMNSLRAEDTALYYCARQKGEAWFAYWGQGTLVTVSSASTKGPSVFPLAPCSRSTSESTAALGCLVKDYFPEPVTVSWNSGALTSGVHTFPAVLQSSGLYSLSSVVTVPSSSLGTKTYTCNVDHKPSNTKVDKRVESKYGPPCPPCPAPEFLGGPSVFLFPPKPKDTLMITRTPEVTCVVVDVSQEDPEVQFNWYVDGVEVHNAKTKPREEQFNSTYRVVSVLTPLHQDWLNGKEYKCKVSNKGLPSSIEKTISKAKGQPREPQVYTLPPSQEEMTKNQVSLTCLVKGFYPSDIAVEWESNGQPENNYKTTPPVLDSDGSFFLYSRLTVDKSRWQEGNVFSCSVMHEALHAHYTQKSLSLSLGK
light: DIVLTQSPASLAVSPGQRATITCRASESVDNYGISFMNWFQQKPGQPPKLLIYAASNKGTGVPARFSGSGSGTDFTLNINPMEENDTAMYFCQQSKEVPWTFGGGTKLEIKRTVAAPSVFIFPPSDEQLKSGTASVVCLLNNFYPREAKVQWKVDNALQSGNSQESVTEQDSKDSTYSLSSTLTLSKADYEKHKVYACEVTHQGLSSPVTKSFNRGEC
B1: binding was characterised by a dissociation constant (Kd) of 103 pM.
